Data: patent publication US9333268B2, “Methods of treatment with arginine deiminase” (Polaris Group, priority 2012, dated 2016)

Tests used:
[1] = test system: non-adherent ASS-deficient cells; test: Total protein proliferation assay, non-adherent cells; type: cell-based; settings: 0-10 mIU ml^−1, 120 h
Protocol: (§1) To assess the activity of ADI-PEG 20 in non-adherent cells, cells were plated at a density of 1×10^5 cells per well in a tissue culture 24-well plate. Additional media was then added containing ADI-PEG 20 for final concentrations ranging from 0-10 mIU ml^−1. To measure changes in proliferation following incubation with ADI-PEG 20 for 120 h, cells were collected, washed and lysed in RIPA buffer. Total protein for each treatment was then determined using the BSA protein assay as a measure of total cell number. All treatments were performed at least in triplicate.

[2] = test system: non-adherent ASS-positive cells; test: as above; type: cell-based; settings: 0-10 mIU ml^−1, 120 h
Protocol: as §1

[3] = test system: SK-LC-13; test: Western blot of autophagy-related protein LC3-II; type: cell-based, human; settings: 24 hour incubation
From the text: Following washing, the membranes were then probed with the appropriate secondary antibody before proteins were finally visualized using ECL reagent (Perkin-Elmer, Fremont Calif., USA).
An assay for the formation of the autophagy-related protein LC3-II assessed if treatment with ADI-PEG 20 was able to induce cellular autophagy in SCLC. […] Chloroquine is a known inhibitor of autophagy that disrupts normal lysosomal functions, and thus results in an increase in the cellular level of LC3-II.

[4] = test system: SK-LC-13 cells; test: FACS analysis of apoptosis by sub-G1 DNA content (propidium iodide); type: cell-based, human
Protocol: Apoptosis was measured by FACS of propidium-iodide-stained cells as detailed by Riccardi et al (Riccardi and Nicoletti, Nat Protoc 1(3):1458-1461, 2006). Cells were plated in 24-well plates and treated with ADI-PEG 20 for […]. Cells were then harvested, washed and fixed in 70% ethanol. DNA was then stained using 20 μg ml^−1 propidium iodide containing 10 μgml^−1 DNAse-free RNAse A (Sigma-Aldrich). Cells were then read on a BD FACSCalibur (BD Biosciences) and analyzed using Flow Jo Software (Tree Star, Ashland, Oreg., USA).
In order to determine the possible mechanism of the antiproliferative effects of ADI-PEG 20 a FACS analysis of apoptosis by sub-G1 DNA content was performed. Cells were treated for 72 h before the analysis was performed.

[5] = test system: SK-LC-13 xenografts; test: Moderately sized SK-LC-13 SCLC xenografts in BALB/c-nude mice; type: in vivo
Protocol: (§2) The activity of ADI-PEG 20 was also assessed in mice bearing ASS-positive NCI-H69 SCLC xenografts. Small cell lung cancer xenografts were established in female BALB/c-nude mice, 3-4 weeks of age weighing ˜20 g (Charles River Labs, Wilmington, Mass., USA). To establish the tumors, 10×10^6 cells in media were mixed 1:1 with Matrigel High Concentration (BD Biosciences) and injected subcutaneously in the abdominal area of the mice. Tumor growth was regularly measured and tumor volume calculated using the formula (TV=(length×width^2)/2). All animal studies were approved by the MSKCC Institutional Animal Care and Use Committee. Mice were euthanized when tumors reached an approximate volume of 1,000 mm^3.
(§3) The anti-tumor efficacy of ADI-PEG 20 was simultaneously assessed in mice bearing either moderate or large SK-LC-13 SCLC xenografts. In the first study, treatment was initiated once tumors had reached an average size of 125 mm^3. In the large xenograft study, treatment was initiated once tumors had reached an average size of 500 mm^3. Arginine deiminase-PEG20 was administered at doses of 1, 2 and 5 IU per animal once every 5 days for 20 days (five doses). To assess the effect of sustained dosing, further groups (n=5) at all dose levels received continued administration of ADI-PEG 20 every 5 days until tumors progressed to the 1,000 mm^3 size limit. Additionally, the efficacy of ADI-PEG 20 was assessed in mice bearing ASS-positive NCI-H69 xenografts. Here, mice received five doses of 2 IU ADI-PEG 20 for 20 days once tumor had reached an average size of 150 mm^3. Arginine deiminase-PEG20 was administered by intraperitoneal injection in all studies. The specific activity of ADI-PEG 20 used in these studies is 9 IU mg^−1 of protein. Thus, 1 IU of ADI-PEG 20 per 20 g mouse is equivalent to 160 IU m^−2.
Efficacy of ADI-PEG 20 treatment in vivo was assessed by comparing means of control and treatment groups using unpaired two-tailed t-tests at the termination of control groups using GraphPad Prism (Version 5.0, GraphPad Software Inc., La Jolla, Calif., USA).

[6] = test system: NCI-H69 xenografts; test: ASS-positive NCI-H69 SCLC xenografts in BALB/c-nude mice; type: in vivo; settings: five doses of 2 IU over 20 days, intraperitoneal
Protocol: as §2
The anti-tumor efficacy of ADI-PEG 20 was simultaneously assessed in mice bearing either moderate or large SK-LC-13 SCLC xenografts. In the first study, treatment was initiated once tumors had reached an average size of 125 mm^3. In the large xenograft study, treatment was initiated once tumors had reached an average size of 500 mm^3. Arginine deiminase-PEG20 was administered at doses of 1, 2 and 5 IU per animal once every 5 days for 20 days (five doses). […] Additionally, the efficacy of ADI-PEG 20 was assessed in mice bearing ASS-positive NCI-H69 xenografts. […]

[7] = Serum ADI-PEG 20 levels by ELISA; type: in vivo, mice
Protocol: In order to determine the effect of ADI-PEG 20 treatment on systemic arginine levels, mice sera were analyzed using high-performance liquid chromatography (HPLC). L-arginine and L-citrulline were resolved with a Pickering Laboratories PCX 5200 post-column derivatization instrument (Pickering Laboratories, Mountain View, Calif., USA) at 39° C. reaction temperature and a fluorescence detector. […] Total ADI-PEG 20 levels were measured by ELISA, as described previously (Holtsberg et al, J Control Release 80(1-3):259-271, 2002).

[8] = Specific activity of ADI-PEG 20; type: biochemical
Protocol: as §3

[9] = test system: sarcoma cell lines with low expression of ASS; test: Sarcoma cell line panel treated with ADI-PEG 20; type: cell-based
[10] = test system: ASS low expressing osteosarcoma cell line MNNG; test: Xenograft of osteosarcoma cell line MNNG in nude mice; type: in vivo; settings: compared to PBS treated controls

B1: ADI-PEG 20: arginine deiminase (ADI) formulated with PEG of 20,000 m.w. (protein)
chain: MSVFDSKFNGIHVYSEIGELETVLVHEPGREIDYITPARLDELLFSAILESHDARKEHQSFVKIMKDRGINVVELTDLVAETYDLASKAAKEEFIETFLEETVPVLTEANKEAVRAFLLSKPTHEMVEFMMSGITKYELGVESENELIVDPMPNLYFTRDPFASVGNGVTIHFMRYIVRRRETLFARFVFRNHPKLVKTPWYYDPAMKMSIEGGDVFIYNNETLVVGVSERTDLDTITLLAKNIKANKEVEFKRIVAINVPKWTNLMHLDTWLTMLDKNKFLYSPIANDVFKFWDYDLVNGGAEPQPQLNGLPLDKLLASIINKEPVLIPIGGAGATEMEIARETNFDGTNYLAIKPGLVIGYDRNEKTNAALKAAGITVLPFHGNQLSLGMGNARCMSMPLSRKDVKW
- proliferation [1]: relative decrease in proliferation
- proliferation [2]: almost total resistance
- cellular level of LC3-II [3]: clear increase in the detectable cellular level of the protein
- cells in apoptosis (sub-G1 DNA content) ([4]; 1.0 mIU ml^−1, 72 h): ~6%
- cells in apoptosis (sub-G1 DNA content) ([4]; 10 mIU ml^−1, 72 h): ~16%
- tumor growth relative to control mice ([5]; 1, 2 and 5 IU per animal every 5 days, intraperitoneal): significant and dose-dependent reduction in tumor growth
- mean tumor volumes, short vs continued dosing ([5]; 1 IU (P=0.251)): not significantly different
- mean tumor volumes, short vs continued dosing ([5]; 2 IU (P=0.084)): not significantly different
- tumor size, continued dosing vs dosing for only 20 days ([5]; 5 IU every 5 days, at completion of the study (P=0.0063)): significantly smaller
- mean tumor volume of control mice compared with ADI-PEG 20-treated groups ([5]; day 33, regardless of dose or schedule (P>0.0001)): significantly larger
- tumor growth [6]: did not produce any effect on tumor growth
- ADI-PEG 20 serum levels after end of dosing ([7]; administered only up to day 20): return to baseline levels by day 40
- ADI-PEG 20 serum levels ([7]; days 0, 12, 40, 1, 2, 5 IU): dose dependent
- specific activity [8]: 9 IU mg^−1 of protein
- cell cycle and apoptosis ([9]; ASS expression low): cell cycle arrest but not apoptosis
- autophagy ([9]; sarcomas that lack ASS): induced autophagy
- IC50 ([9]; sensitive cell lines with low expression of ASS): 0.02 to 0.1 µg/mL
- tumor growth rate [10]: significantly slower tumor growth rate
